The chains are these.
B1: HDV Ribozyme (parent)
chain: GGCCGGCAUGGUCCCAGCCUCCUCGCUGGCGCCGGCUGGGCAACAUUCCGAGGGGACCGUCCCCUCGGUAAUGGCGAAUGGGACCCA

This series covers variants of B1. Kind of series: self-cleavage, relative activity (ratio to wild type); higher = more cleavage; co-transcriptional.
Turning to A8G G34C, the self-cleavage is 0.0573.

In the case of A8G G34U, the self-cleavage was determined as 0.429.

With A8G G54A, the self-cleavage worked out at 0.877.

Take A8G G54C: the self-cleavage came to 1.07.

Turning to A8C C48A, the self-cleavage is 1.35.

Take A8G C13A: the self-cleavage amounted to 0.175.

On to C7U G39A, for which the self-cleavage was 0.3.

Consider C7U G39U, for which the self-cleavage turned out to be 0.289.

As for A8C C66G, the self-cleavage was found to be 0.997.

Consider A8C C66U, for which the self-cleavage is 0.76.

With A8C C84A, the self-cleavage stood at 0.751.

On to A8C C84U, for which the self-cleavage came out at 0.462.

Turning to A8G C61U, the self-cleavage was 0.982.

Take A8G G68U: the self-cleavage came to 0.855.

For C7U G73A, the self-cleavage turned out to be 0.424.

For the variant C7U G73U, the self-cleavage amounted to 0.277.

As to C7U G73C, the self-cleavage was found to be 0.224.

In the case of A8G C30A, the self-cleavage is 0.237.

As to A8G C30U, the self-cleavage turned out to be 0.806.

In the case of A8G C30G, the self-cleavage was determined as 0.128.

For the variant C7U U23A, the self-cleavage is 0.923.

For C7U U23C, the self-cleavage was 0.516.

On to A8G C48U, for which the self-cleavage came to 1.26.

A8G C48A: the self-cleavage is 1.07.

Consider A8G C48G, for which the self-cleavage amounted to 1.11.

A8C G82A: the self-cleavage amounted to 0.172.

A8C G53C: the self-cleavage worked out at 0.739.

As to A8C C26A, the self-cleavage is 0.629.

Turning to A8G C15U, the self-cleavage was determined as 0.7.

As to A8G C15A, the self-cleavage is 0.554.

On to A8G C15G, for which the self-cleavage was determined as 0.262.

With C7U G28C, the self-cleavage is 0.237.

Consider C7U G28A, for which the self-cleavage came to 0.136.

In the case of A8C C44A, the self-cleavage is 0.222.

Regarding A8C C44G, the self-cleavage came to 0.401.

For the variant A8G G67A, the self-cleavage worked out at 0.755.

Consider A8G C24G, for which the self-cleavage was found to be 0.0639.

A8G C24U: the self-cleavage came to 0.665.

For the variant A8G C24A, the self-cleavage is 0.762.

Turning to A8G C57U, the self-cleavage is 1.16.

With A8G C57G, the self-cleavage was determined as 1.27.

Take A8G G52U: the self-cleavage is 0.849.

In the case of A8G G25A, the self-cleavage was determined as 0.0639.

With A8G G25C, the self-cleavage is 0.175.

Take A8G A45U: the self-cleavage turned out to be 0.692.

As for A8G A45C, the self-cleavage was 0.332.

Regarding A8G G17A, the self-cleavage was 0.629.

Consider A8G G17C, for which the self-cleavage was 0.0519.

For A8G A78C, the self-cleavage was found to be 0.166.

As to A8G A78U, the self-cleavage stood at 0.266.

A8C C13A: the self-cleavage was found to be 0.266.

Turning to A8C C13U, the self-cleavage was 0.356.

With C7U C15A, the self-cleavage amounted to 0.256.

On to C7U C15U, for which the self-cleavage was determined as 0.674.

As for C7U C63G, the self-cleavage amounted to 0.569.

Consider C7U C63A, for which the self-cleavage stood at 0.751.

Take A8G G29C: the self-cleavage is 0.

On to A8G G29A, for which the self-cleavage turned out to be 0.

A8G C85U: the self-cleavage is 1.06.

Consider A8C G40A, for which the self-cleavage worked out at 0.511.

On to C7U C44A, for which the self-cleavage is 0.403.

As to C7U C26G, the self-cleavage worked out at 0.534.

As to C7U C26A, the self-cleavage was 0.91.

As for C7U C26U, the self-cleavage worked out at 0.867.

A8C G80A: the self-cleavage worked out at 0.326.

Turning to A8C G80U, the self-cleavage was 0.07.

C7U U27C: the self-cleavage is 0.404.

For the variant C7U U27A, the self-cleavage is 0.519.

Turning to C7U G80C, the self-cleavage was 0.0773.

Take C7U G80A: the self-cleavage was 0.164.

Take C7U U9C: the self-cleavage came to 1.02.

On to C7U G52U, for which the self-cleavage worked out at 0.562.

Consider C7U G52C, for which the self-cleavage was 0.849.

Consider A8G C66A, for which the self-cleavage is 0.886.

Regarding A8G C66G, the self-cleavage amounted to 0.969.

With C7U G38C, the self-cleavage amounted to 0.0462.

With C7U G59C, the self-cleavage was determined as 0.848.

For the variant C7U C64G, the self-cleavage was determined as 0.892.

As to C7U C64U, the self-cleavage amounted to 0.68.

In the case of A8C G31A, the self-cleavage is 0.162.

For A8C G34U, the self-cleavage worked out at 0.104.

For the variant A8C G34C, the self-cleavage stood at 0.178.

A8C U69A: the self-cleavage was found to be 0.688.

A8C U69G: the self-cleavage is 0.712.

For A8C C14A, the self-cleavage turned out to be 0.375.

For the variant A8C C14U, the self-cleavage came out at 0.831.

For A8C C14G, the self-cleavage was 0.237.

As for A8G C36G, the self-cleavage turned out to be 0.104.

On to C7U G54A, for which the self-cleavage was 0.787.

Regarding C7U C33A, the self-cleavage came to 0.0831.

Regarding A8G G55C, the self-cleavage was 0.982.

Turning to A8G G55U, the self-cleavage was determined as 0.804.

Turning to A8G G82A, the self-cleavage was 0.237.

Turning to A8G A51U, the self-cleavage stood at 1.06.

For A8G A51C, the self-cleavage came out at 0.962.

Regarding A8G G11A, the self-cleavage was 0.196.

On to A8C G73C, for which the self-cleavage was 0.115.

A8G C21U: the self-cleavage was found to be 0.201.

Take A8G C21G: the self-cleavage is 0.0536.

On to A8G G53A, for which the self-cleavage came to 1.04.

For the variant A8G G53U, the self-cleavage amounted to 1.02.

A8G G76C: the self-cleavage is 1.13.

On to A8G G39A, for which the self-cleavage turned out to be 0.302.

Turning to A8G G39U, the self-cleavage was determined as 0.54.

C7U G67C: the self-cleavage worked out at 0.529.

As to A8C C61U, the self-cleavage came out at 0.643.

Take A8G C86A: the self-cleavage turned out to be 1.15.

For the variant A8G C86G, the self-cleavage was determined as 1.23.

In the case of A8C C62G, the self-cleavage came to 0.475.

As for A8C C62A, the self-cleavage worked out at 0.918.

As for A8G C64A, the self-cleavage was determined as 0.764.

As for C7U U65G, the self-cleavage came to 0.856.

Turning to A8C A71U, the self-cleavage is 0.427.

Consider A8C A71C, for which the self-cleavage stood at 0.308.

Consider A8G A70G, for which the self-cleavage was determined as 1.09.

For the variant A8G A70U, the self-cleavage turned out to be 0.831.

As for A8C A43G, the self-cleavage was 0.151.

For the variant A8C A43C, the self-cleavage is 0.185.

Regarding C7U G35U, the self-cleavage is 0.0437.

On to C7U G35A, for which the self-cleavage came out at 0.109.

C7U C21A: the self-cleavage was 0.0314.

For C7U C21U, the self-cleavage turned out to be 0.0652.

In the case of C7U C21G, the self-cleavage is 0.0739.

On to A8C C58G, for which the self-cleavage turned out to be 0.68.

For the variant A8C C58A, the self-cleavage was 0.692.

For the variant C7U C85G, the self-cleavage was found to be 0.985.

C7U C85U: the self-cleavage turned out to be 0.886.

Turning to A8C U12C, the self-cleavage is 0.208.

In the case of A8C U12G, the self-cleavage worked out at 0.831.

Take C7U U46C: the self-cleavage came out at 0.447.

Regarding C7U U46A, the self-cleavage turned out to be 0.623.

On to C7U C19U, for which the self-cleavage is 0.0519.

As to C7U C19G, the self-cleavage was found to be 0.0528.

With C7U C57A, the self-cleavage amounted to 0.979.

On to C7U C57U, for which the self-cleavage was 0.927.

As for A8C C41U, the self-cleavage worked out at 0.748.

As for C7U C62G, the self-cleavage was 0.643.

As for C7U C62U, the self-cleavage came out at 0.831.

Take A8C G67U: the self-cleavage was determined as 0.739.

Regarding A8C G67A, the self-cleavage stood at 0.898.

Consider A8C G67C, for which the self-cleavage worked out at 0.623.

For C7U U79C, the self-cleavage came to 0.126.

Take C7U U79G: the self-cleavage was determined as 0.434.

With A8G C41A, the self-cleavage turned out to be 0.914.

Regarding A8C C22G, the self-cleavage was 0.0791.

Turning to A8C G38A, the self-cleavage came to 0.0369.

For the variant A8C G38C, the self-cleavage amounted to 0.0978.

As for A8C U46G, the self-cleavage is 0.554.

Turning to A8C U46C, the self-cleavage came out at 0.615.

Consider C7U G74C, for which the self-cleavage came out at 0.325.

On to A8C U37G, for which the self-cleavage came out at 0.166.

As to A8G C58U, the self-cleavage worked out at 0.962.

As to A8G C58A, the self-cleavage was 1.07.

As to A8G C58G, the self-cleavage turned out to be 0.895.

Regarding A8C C57A, the self-cleavage came to 0.89.

On to A8C A16U, for which the self-cleavage came out at 1.16.

Turning to A8G, the self-cleavage came to 1.02.

In the case of A8C, the self-cleavage amounted to 0.859.

Consider A8G A43G, for which the self-cleavage was 0.415.

On to A8G A43U, for which the self-cleavage stood at 0.519.

As to A8G A43C, the self-cleavage worked out at 0.145.

In the case of C7U G34U, the self-cleavage worked out at 0.0923.

A8C C36A: the self-cleavage stood at 0.

As for A8C C36G, the self-cleavage stood at 0.

For C7U G68A, the self-cleavage worked out at 0.969.

On to C7U G68C, for which the self-cleavage is 0.704.

As to C7U G10U, the self-cleavage came out at 0.374.

Source of the values: the RNAGym collection of RNA variant scans (doi:10.7554/elife.80360).
